{"source": "paper doi:10.1101/432989", "about": "(bioRxiv, 2018)", "binders": {"B1": {"name": "MazE-mt9 (natural protein)", "chain": "MSTSTTIRVSTQTRDRLAAQARERGISMSALLTELAAQAERQAIFRAEREASHAETTTQAVRDEDREWEGTVGDGLG"}, "B2": {"name": "MazE-mt9 R46A-E48A-D74A triple mutant (natural protein)", "chain": "B1 chain with R46A, E48A, D74A"}, "B3": {"name": "MazE-mt9 D74A mutant (natural protein)", "chain": "B1 chain with D74A"}, "B4": {"name": "MazE-mt1 (natural protein)", "chain": "MKLSVSLSDDDVAILDAYVKRAGLPSRSAGLQHAIRVLRYPTLEDDYANAWQEWSAAGDTDAWEQTVGDGVGDAPR"}, "B5": {"name": "MazE-mt1 D69A mutant (natural protein)", "chain": "B4 chain with D69A"}}, "key": {"[1]": {"molecular_target": "the molecule itself", "assay": "crystal structure"}, "[2]": {"molecular_target": "MazF-mt9 (Mycobacterium tuberculosis)", "assay": "ITC"}}, "note": "Where a chain is given by its changes, count along the chain named. Numbers in names are those of the source.", "data": [{"binder": "B1", "values": [{"measurement": "binding result", "setting": "[1]", "value": "binds"}, {"measurement": "Kd", "setting": "[2]", "value": 17.5, "unit": "nM"}]}, {"binder": "B2", "values": [{"measurement": "fold increase of KD against WT MazE-mt9", "setting": "[2]", "value": 8, "unit": "fold"}]}, {"binder": "B3", "values": [{"measurement": "fold increase of KD against WT MazE-mt9", "setting": "[2]", "value": 2, "unit": "fold"}]}, {"binder": "B4", "values": [{"measurement": "Kd", "setting": "[2]", "value": 59.3, "unit": "nM"}]}, {"binder": "B5", "values": [{"measurement": "fold weakening of affinity against WT MazE-mt1", "setting": "[2]", "value": 5.3, "unit": "fold"}]}]}
